Assay results taken from paper PMC314469, “Protein Interaction Networks by Proteome Peptide Scanning” (PLoS Biology, 2004).

T1: amphyphisin SH3 (AMPH_HUMAN), P49418
T1 chain: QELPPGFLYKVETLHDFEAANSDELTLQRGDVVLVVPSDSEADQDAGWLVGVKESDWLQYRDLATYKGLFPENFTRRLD


Tests used:
[1] = target: endophilin SH3 (SH3G2_HUMAN), Q99962; test: SPOT array
[2] = target: T1, amphyphisin SH3 (AMPH_HUMAN), P49418; test: SPOT array

Binder	normalised SPOT signal, Boehringer light units (BLU); mean over the file's lines of this peptide [1]	normalised SPOT signal, Boehringer light units (BLU); mean over the file's lines of this peptide [2]
TKDSPGKPPMAPPS [BAC03441 170-184]	80.7	90.4
TAKKIKRPKFTVPQ [Q9UDN0 30-43]	15.1	42.6
SYTRIKRPQDQLRF [P55055 405-418]	128	38.5
TFGIPLRPNRGRGG [Q9UFR3 88-101]	583	8170
TAPLPIRPPSGTKK [Q9UBS0 458-472]	1100	468
SVSGPKRPQDRVAV [P48200 444-457]	67.2	38.9
TEVDIKRPSRGQTS [Q96T37 401-414]	77.7	656
TAGPPKRPGRPPKN [P55201 901-914]	93.8	5130
TILLPKRPPKTTED [Q9BT43 129-143]	916	282
TKALLKRPLREIQM [Q9UBI4 175-188]	170	866
SVIPPDRPPGASAG [O43147 533-547]	72.8	53.4
SVTDIRRPRLYLLQ [Q9NYY3 591-604]	96.5	35.9
TELLPKRPQHLPGH [P54098 556-569]	21.9	34.4
TEEELRRPEMKNFF [Q9Y373 238-251]	28.7	34.2
TKIPFKRPRGHNFS [Q9HAS2 64-77]	22.1	53.7
TEGRLRRPQQQQER [Q96PE2 193-206]	0	30
TELLPRRPPSSSSS [Q9BZL6 226-240]	339	118
SVSRPERPPESAAL [Q9Y256 12-26]	102	85.5
SVIKPPRPDRGWFV [Q9BY07 808-821]	4940	1520
TKIMFNRPKKKNAI [O75521 116-129]	112	80.4
TENAPSRPLRRRRK [Q9ULR8 121-134]	1650	18800
SWQILARPWRAFFK [Q9H6E1 737-750]	73.5	1030
SWERPRRPNGDIVG [P16144 1660-1673]	2770	3700
SEEHPRRPDHGRRG [Q9NUN8 9-22]	55.3	17.2
TIPKPPKPPDKPLM [O43539 57-71]	1750	59.5

Now from value to binder:

normalised SPOT signal, Boehringer light units (BLU); mean over the file's lines of this peptide [1]	normalised SPOT signal, Boehringer light units (BLU); mean over the file's lines of this peptide [2]	Binder
56.3	38.6	THSIIKRPDNQHVI [Q02817 4993-5006]
2240	780	SYRRLDRPTRIRFS [Q9H2X0 201-214]
2020	33.8	THLLIKRPPFFHYR [Q9HAM8 259-272]
365	34.4	TASPPARPPAQVGL [Q9NT59 32-46]
1260	2770	TEGIPPKPPPRLVW [Q9UBY0 781-795]
128	76.6	SEGSLTRPKKAIPA [Q13329 90-103]
3200	4960	SVIKPTRPDRGWFV [Q9HBU5 808-821]
1300	3520	SDTSPRRPLRPTPN [Q16456 13-26]
16.8	16.8	TEDTPRRPPEPKPI [Q9UKN7 2430-2443]
127	33.8	SVVGIRRPFQIPPG [Q9NPJ5 421-434]
179	12.2	SWPLLERPWKAFLN [Q9H6E9 501-514]
127	0	TIPPFERPFKDHQV [O94847 104-117]
668	43.3	TGGGPGRPPDWTPH [Q9BZS0 2280-2294]
133	16.7	SVNHIKRPHSVPSS [O75179 569-582]
398	37.8	TAVPPKRPYGTQRT [Q9H6A9 359-372]
20.5	40.3	TDNKFRRPWTRVSA [Q96M73 46-59]
125	930	SEGTLERPQRSRGR [Q9NQX6 85-98]
